Patent US20250002586A1 (CDR LIFE, published 2025)
Where a chain is given by its changes, count along the chain named.

What was measured:
[1] = target: T1, CD3 heterodimer (Acro Biosystems) (UniProt P07766 23-126); assay: SPR (Biacore T200), CD3 heterodimer on HC30M chip; value given for the high affinity CD3 Fab
[2] = target: T1, CD3 heterodimer (Acro Biosystems); assay: SPR (Biacore T200), CD3 heterodimer on HC30M chip; value given for the low affinity CD3 Fab
[3] = target: T1, CD3 heterodimer (Acro Biosystems); assay: SPR (Biacore T200), CD3 heterodimer on HC30M chip; value given for the mid affinity CD3 Fab

T1 sequence (P07766 23-126, one chain of several): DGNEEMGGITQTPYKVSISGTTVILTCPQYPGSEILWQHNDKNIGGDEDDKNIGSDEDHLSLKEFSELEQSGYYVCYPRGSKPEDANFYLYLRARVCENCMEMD

B1: CDR-14 (bispecific antibody)
heavy: EVQLVESGGGLVQPGGSLRLSCAASGFTFSTYAMNWVRQAPGKGLEWVGRIRSKYNNYATYYADSVKGRFTISRDDSKNTLYLQMNSLRAEDTAVYYCVRHGNFGNSYVSWFAYWGQGTLVTVSSASTKGPSVFPLAPSSKSTSGGTAALGCLVKDYFPEPVTVSWNSGALTSGVHTFPAVLQSSGLYSLSSVVTVPSSSLGTQTYICNVNHKPSNTKVDKRVEPKSCGGGGSSYELTQPPSVSVSPGQTASITCTADTLSRSYASWYQQKPGQSPVLVIYRDTSRPSGIPERFSGSNSGNTATLTISGTQAMDEADYYCATSDGSGSNFQLFGGGTKLTVLGGGGGGSGGGGSGGGGSGGGGSESQVLESGGGSVQPGGSLRLSCTVSGFSLSNYAMSWVRQAPGKGLEYIGIVSSGGTTYYASWAKGRFTISKDTSKNTVYLQMNSLRAEDTASYYCAKDLYYGPTTYSAFNLWGQGTSVTVSS
light: QAVVTQEPSLTVSPGGTVTLTCRSSTGAVTTSNYANWVQQKPGQAPRGLIGGTNKRAPGVPARFSGSLLGGKAALTISGAQPEDEADYYCALWYSNHWVFGGGTKLTVLGTVAAPSVFIFPPSDEQLKSGTASVVCLLNNFYPREAKVQWKVDNALQSGNSQESVTEQDSKDSTYSLSSTLTLSKADYEKHKVYACEVTHQGLSSPVTKSFNRGECGGGGSSYELTQPPSVSVSPGQTASITCTADTLSRSYASWYQQKPGQSPVLVIYRDTSRPSGIPERFSGSNSGNTATLTISGTQAMDEADYYCATSDGSGSNFQLFGGGTKLTVLGGGGGGSGGGGSGGGGSGGGGSESQVLESGGGSVQPGGSLRLSCTVSGFSLSNYAMSWVRQAPGKGLEYIGIVSSGGTTYYASWAKGRFTISKDTSKNTVYLQMNSLRAEDTASYYCAKDLYYGPTTYSAFNLWGQGTSVTVSS
notes: no Fc
Kd [1]: 1.2 nM

B2: CDR-12 (bispecific antibody)
heavy: B1 heavy with Y55A, N106D
light: B1 light with R23G, Q44K, A45S
notes: no Fc
Kd [2]: 54 nM

B3: CDR-13 (bispecific antibody)
heavy: B1 heavy with N106D
light: B1 light with R23G, Q44K, A45S
notes: no Fc
Kd [3]: 11 nM
